Measurements reported in US20240350544A1 (Takeda / Millennium, published 2024).
Residue numbers refer to the chain shown, from its start.

T1: hBCMA-mIgG2a (human; mouse, UniProt Q02223 1-54, limits assumed)
T1 construct: not shown: mouse IgG2a portion ('mIgG2a')
T1 sequence: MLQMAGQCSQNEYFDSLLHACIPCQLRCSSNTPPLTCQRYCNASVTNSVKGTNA

T2: human BCMA on BCMA overexpressing CHO cells (human, UniProt Q02223 1-184)
T2 construct: also called hBCMA CHO; Hu BCMA (FACS)
T2 chain: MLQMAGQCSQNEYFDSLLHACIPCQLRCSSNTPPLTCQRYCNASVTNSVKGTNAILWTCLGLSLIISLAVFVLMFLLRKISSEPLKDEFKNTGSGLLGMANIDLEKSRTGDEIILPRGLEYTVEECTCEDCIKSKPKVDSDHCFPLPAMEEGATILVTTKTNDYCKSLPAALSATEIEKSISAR

T3: hBCMA-HIS antigen (human, UniProt Q02223 1-54)
T3 construct: It may be the same protein as Bio-huBCMA-His without, or with, biotin; also called human BCMA-6His; not shown: His tag
T3 sequence: T1 sequence

T4: human BCMA protein (Octet; construct not stated) (human, UniProt Q02223 1-54, limits assumed)
T4 sequence: T1 sequence

B1: anti-BCMA scFv clone from phage display, first row of Table 3 (VH …..., VL with LCDR3 …) (scFv, V domains shown)
VH: QITLRESGGDVVQPGRSLRLSCAASGFTFSSYAIHWVRQAPGKGLEWVAVTWHDGSNKYYAESVMGRFTISRDNSKNTLYLHMNSLRAEDTGVYYCARAKFGEPQYFQHWGQGTLVTVSS
VL: DIVMTQSPSFLSASVGDRVTITCRASQGISSYLAWYQQKPGKAPKLLIYAASTLQSGVPSRFSGSGSGTEFTLTISSLQPEDFATYYCQQLNSYPWTFGQGTKVDIK
B2: anti-BCMA scFv clone from phage display, second row of Table 3 (VH …..., VL with LCDR3 …) (scFv, V domains shown)
VH: B1 VH
VL: B1 VL with S30N, S31N, K42I, S63G, N92K, W96F, Q100P, D105E
B3: anti-BCMA scFv clone from phage display, third row of Table 3 (VH …..., VL with LCDR3 …) (scFv, V domains shown)
VH: B1 VH with Q1E, I2V, T3Q, R5V, L115T
VL: B1 VL with W96F, Q100P
B4: Ab 2, lead anti-BCMA clone of Table 4 (antibody, V domains shown)
VH: B1 VH
VL: B1 VL with S30N, S31N, K42I, S63G, N92K, W96F, Q100P, D105E
B5: Ab 3, lead anti-BCMA clone of Table 4 (antibody, V domains shown)
VH: B1 VH with Q1E, I2V, T3Q, R5V, L115T
VL: B1 VL with W96F, Q100P
B6: anti-BCMA scFv clone from phage display, first row of Table 3 (VH QITLRESGG..., VL with LCDR3 QQLNSYPWT) (scFv, V domains shown)
VH: B1 VH
VL: B1 VL
notes: Tested as scFv in periplasmic extract; also called Ab 1

Columns and labels:
[1] = molecular target: Bio-cyBCMA-His (biotinylated cynomolgus BCMA with His tag) (cynomolgus); test: ELISA, scFv periplasmic extract on biotinylated cynomolgus BCMA-His
Chain of Bio-cyBCMA-His (biotinylated cynomolgus BCMA with His tag) (cynomolgus) (chain, as listed by the source): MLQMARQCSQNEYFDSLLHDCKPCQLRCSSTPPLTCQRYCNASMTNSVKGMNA

[2] = molecular target: T1, hBCMA-mIgG2a; test: Octet (BLI), hBCMA-mIgG2a captured on sensor tips
[3] = molecular target: T2, human BCMA on BCMA overexpressing CHO …; test: flow cytometry on human BCMA overexpressing CHO cells
Protocol: Anti-BCMA clones were tested for on-cell binding by FACS using BCMA overexpressing CHO cells. […] These samples were washed appropriately and assessed on the Attune NxT Flow Cytometer (Thermo Fisher Scientific). FACS analysis was performed in FlowJo.

[4] = molecular target: T3, hBCMA-HIS antigen; test: Octet (BLI), hBCMA-HIS antigen captured on sensor tips
[5] = molecular target: T4, human BCMA protein (Octet; construct …); test: Octet (BLI), scFv periplasmic extract, human BCMA captured on sensor tips
Protocol: An Octet binding assay was performed using human BCMA protein with a panel of anti-BCMA clones for binding characterization. Human BCMA was first captured onto the appropriately coated Octet sensor tips, then positioned into wells containing the anti-BCMA clones for association. After the sensor tip was placed in the dissociation wells, the response of the interaction was calculated for each anti-BCMA clone and corresponding human BCMA protein.

Row | Binder | PE Elisa Bio-cyBCMA-His [1] | Kd [2] | koff [2] | kon [2] | EC50 [3] | Kd [4] | koff [4] | kon [4] | other results
1 | B1 | 0.147 |  |  |  |  |  |  |  | 
2 | B2 | 0.122 |  |  |  |  |  |  |  | 
3 | B3 | 0.126 |  |  |  |  |  |  |  | 
4 | B4 |  | 0.0117 nM | 4.44e-06 s⁻¹ | 379000 M⁻¹ s⁻¹ | 0.144 µg/mL | 0.0788 nM | 3.77e-05 s⁻¹ | 479000 M⁻¹ s⁻¹ | 
5 | B5 |  | < 0.001 nM | < 1e-07 s⁻¹ | 308000 M⁻¹ s⁻¹ | 0.117 µg/mL | 0.0608 nM | 1.33e-05 s⁻¹ | 219000 M⁻¹ s⁻¹ | 
6 | B6 |  |  |  |  |  |  |  |  | koff [5]: 0.000369 s⁻¹
